Test results from the nanobody polyreactivity screen of Harvey et al. (2022).

Assay: yeast display, Sf9 membrane polyspecificity reagent, FACS + sequencing; frameworks hold sequencing errors
In short: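 A nanobody's polyreactivity label depends on the gate it was sorted from. Yeast display cells were stained with 10% biotinylated, detergent-solubilized Sf9 membrane reagent for 1 hour at 4 °C, enriched on streptavidin microbeads and sorted by FACS. The low and high (top ~1%) gates were set on anti-HA fluorescence for expression and streptavidin fluorescence for reagent binding.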

Row | Sequence | polyreactivity (PSR sort gate)
1 | QVQLVESGGCIVQAGGSLRFSCAASGFTFNRYAMGWYRQAPGKERELVAAITRRGGSTYYADSVKGRFTISRDNAKNTVYFQMNSLKPEDTAVYYCNVDFQAYGIPMDYWGQGTQVNVSS | high polyreactivity
2 | QFQLVESGGGLVQAGGSLRLSCAASGSTFSNYAMGWYRQAPGKERELVAAISSRGGSTYYADSVKGRFTISRDHAKNTVNLQMISLKPEDTAVYYCATYYVYKLYYWGQGTQVTVSS | high polyreactivity
3 | QVQLVESGAGIVQAGGSLRLSCAASGSIFYYNAMGVYRQAPGKERELVAAITSADSTNYADSVKGRFTISRDNAKNTVYLQMNSLKPEDTAVYFCAADFLAALTYYRTYDYWGQGTQVTVSS | low polyreactivity
4 | QVQLVESGGGLVQAGGSLRLSCAPSGRIYATYAMGWYRQAPGKDSELVAAISDSGGRTYYADSVKGRFTISRDNAKNTVYLQMKSLKPEVNAVYYCAAKNGDRYARGYWGQGTQVNVSS | high polyreactivity
5 | QVQLVESGGGLVQAGGSLRLSCAASGSTFRHYAMGWYRQAPGKERELVAAISIRGGSTNYADSVKGRFTISRDNAKNTVYLQMNSLKPEDTAVYYCNACRLRYIFKSYDYWGQGTQVTVSS | high polyreactivity
6 | QVQLVESGGGLVQAGGSLRLSCAASGRTFPSYAMGWYRQAPGKERELVAAITRGGSTNYADSVKGRFTISRDNAKNTVYLQMNSLKPEDTAVYYCAAARWRWQLARDDYWGQGTQVTVSS | high polyreactivity
7 | QVQLVESGGGLVQAGGSLRLSCAASGSIFVLYAMGWYRQAPGKERELVAAINYDGASTYYADSVKGRFTNSRDNAKNTVYLQMISLKREDTAVYYCAASWQFNIDVQLYLFEYWGQGTQVTVSS | low polyreactivity
8 | QVQLVESGGGLVQAGGSLRLSCAASGSIFKPYAMGWYRQAPGKERELVAAISRSGSTYYADSVKGRFTISRDNAKNTVYLQMNSLKPEDTAVYYCAKDVRPNYYAAFNYWGQGTQVTVSS | low polyreactivity
9 | QVHLVESGGGLVQAGGSLRLSCAASGSTIVDYHMAWYRQAPGKERELVASISSSGGSTYYADSVKGRFTISRDNAKNTVYLQMNSLKPEDTAVYYCAADTWGFWYWGPLFSKYGYWGQGTQVTVSS | low polyreactivity
10 | QVQHVESGGGLVQAGGSLRLSCAASGFIFARNAMGWYRQARGKERELVAVISTRGRTYYADSVKGRFTFSRDNAKNTVYLQMNSLKPEDTAVYYCNADKVIGYDYWGQGTQVTVSS | high polyreactivity
11 | QVQLVESGGGLVQAGGSLRLSCAASGPISAIYDMGWDRQAPGKERELVASISGGTSTYYADSVKGRFTISRDNAKNTVYLQMNSLKPEDTAVYYCNAEASSYHGVEDEYDYWGQGTQVTVSS | low polyreactivity
12 | QVQLVESGGGLVQAGGSLRLSCAASGFISYYYAMGWYRQAPGKERELVAAITKSGGSTYYADSVKGRFTIARDNAKNTVSLQMNSLKPEDTAVYYCAAVRSTRNSTSRLYGYWGQGTQVTVSS | low polyreactivity
13 | QVQLEDSGGGLVQAGGSLRLSCAASGSTFPLNAMGWYRQAPGKERELVASINFGGGTTYYADSVKGRFTISRDNAMNTVYLQMNSLKPEDTAVYYCAADVYQEFGYWGQGTQVTVSS | high polyreactivity
14 | QVQLVESGGGLVQAGGSLRLSCDASGSIFSIYAMGWYRQAPGKERELVAAISSGGSTYYADSVKGRFTISRDNAKNTVYLQMNSLKPEDTAVYYCAADAAYYSGYDYWGQGTQVTVSS | low polyreactivity
15 | QVQLVESGGGLVQAGGSLRLSCAASGRTFSHNAMGWYRQAPGKERELVATISWNGGRTYYADSVKGRFTISRDNAKNTVYLQMNSLKPEDTAVYYCADDRIWVLYRTYFSKYGYWGQGTQVTVSS | high polyreactivity
16 | QVQLVESGAGLVQAGGSLSLSCAASGRIFDRYVMGWYRQAPGKERELVAAISDGGSTYYADSVKGRFTISRDNAKNTVYLQMNSLKPEDTAVYYCAAVRYNSRVSTTPSEMYYWGQGTQVTVSS | low polyreactivity
17 | QVQLVESGGGLVQAGGSLRLSCAASGRTFGQYAMGWYRQAPGKEREFVAAITSSGGSTYYADSVNGRFTISRDNAKNTVYLLMNSLNPEDTAVYYCAAPISRSAGWDSYDYWGQGTQVTVSS | low polyreactivity
18 | QVQLVESGGGLVQAGGSLRLSCAASGFTFNRYAMGWYRQAPGKERELVAAISRGGGSTYYADSVKGRFTISRDNAKNTVYLQMNSLKPEDTAVYYCAADTRVRTCRYGFWGQGTQVNVSS | high polyreactivity
19 | QVQLVESGGGLVQAGGSLRLSCAASGSNISDNEMGWYRPAPGKESELVAAINWGGTNTYYADSVKGRYTISRDNAKNTVYLQINRLKPEDTAVYYCNADIPRRPIRHYLYDYWGQGTQVTVSS | low polyreactivity
20 | QVQLVESGGGLVQAGGSLRLSCAASGRTLYYYTMGWYRPAPGKERELVAAIRWSTGSTYYADSVKGRFTISRDNAKNTVYLQMNSLKPEDTAVYYCNAYRYQWAQSTEYDYWGQGTQVTVSS | high polyreactivity
21 | QVQLVESGGGLVQAGGSLRLSCAASGRIFGYNAMGWYRQAPGKERELVAAISSTGNTYYADSVKGRFTISRDNAKNTVYLQMNSLKPEDTAVYYCARSWLYSQRRYDYWGQGTQVTVSS | low polyreactivity
